Assay results: patent US20220135682A1

What was measured:
[1] = target: Human ICOS (human) (UniProt Q9Y6W8); experiment: in vivo target engagement, flow cytometry on human peripheral blood CD4+ T cells, 0.1 mg/kg, Day 42
[2] = target: Human ICOS (human) (UniProt Q9Y6W8); experiment: in vivo target engagement, flow cytometry on human peripheral blood CD4+ T cells, 0.1 mg/kg, Day 42, average of three subjects
[3] = target: Human ICOS (human) (UniProt Q9Y6W8); experiment: in vivo target engagement, flow cytometry on human peripheral blood CD4+ T cells, average of three subjects after first i.v. dose of 0.1 mg/kg

Chain of Human ICOS (human) (Q9Y6W8 21-199): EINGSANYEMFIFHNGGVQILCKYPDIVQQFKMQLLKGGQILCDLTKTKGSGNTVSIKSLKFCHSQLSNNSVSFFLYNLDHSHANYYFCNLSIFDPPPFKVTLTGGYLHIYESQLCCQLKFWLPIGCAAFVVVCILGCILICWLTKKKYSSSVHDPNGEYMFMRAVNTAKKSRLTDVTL

target engagement [1]: < 40% | target engagement [2]: 10% | target engagement [3]: 100%
Substance: JTX-2011 (antibody)
